The values below come from patent US20020123614A1 (published 2002).

In experiment [1] the target is T1, recombinant ICAM-3 Fc chimera (UniProt P32942 30-485, limits assumed).
T1 construct: amine-coupled to the BIAcore chip; not shown: Fc part, not described
T1 sequence (looked up): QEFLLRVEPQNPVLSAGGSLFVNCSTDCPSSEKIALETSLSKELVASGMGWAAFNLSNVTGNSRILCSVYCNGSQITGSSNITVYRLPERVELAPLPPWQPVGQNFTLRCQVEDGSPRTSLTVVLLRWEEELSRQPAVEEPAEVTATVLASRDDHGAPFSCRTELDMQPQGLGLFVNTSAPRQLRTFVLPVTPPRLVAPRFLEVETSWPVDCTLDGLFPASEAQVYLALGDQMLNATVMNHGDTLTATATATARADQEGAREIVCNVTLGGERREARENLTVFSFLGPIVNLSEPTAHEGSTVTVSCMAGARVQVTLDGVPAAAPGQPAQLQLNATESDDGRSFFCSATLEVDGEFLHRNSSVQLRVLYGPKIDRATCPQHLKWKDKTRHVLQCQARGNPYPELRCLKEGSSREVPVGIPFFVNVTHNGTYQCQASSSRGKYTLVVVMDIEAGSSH
Briefly: BIAcore, 1 mM MgCl2. The method, then: (§1) The recombinant proteins were purified from inclusion bodies by solubilization of inclusion bodies in 6M guanidine HCl and were refolded by dilution in the presence of 0.1 mM Cu²⁺/phenanthrolin to enhance formation of disulfide bonds. Protein was concentrated by ammonium sulfate precipitation, dialyzed, and purified over a monoQ ion-exchange column. […] The recombinant proteins were then purified by gel filtration and concentrated by Centriprep. For BIAcore™ analysis, recombinant ICAM-1, ICAM-2 and ICAM-3 Fc chimeras were immobilized on the BIAcore™ sensor chip by an amine-coupling method. Recombinant αL I-domains were flowed in, and BIAcore™ assays were performed with Tris-buffered saline supplemented with 1 mM MgCl₂ or 2 mM EDTA, at a flow rate of 10 μl/minute at 25° C.
(In general: Surface plasmon resonance follows binding to a sensor surface in real time, without labels.)

Experiment [2] addresses T2, recombinant ICAM-2 Fc chimera (UniProt P13598 25-223, limits assumed).
T2 construct: amine-coupled to the BIAcore chip; not shown: Fc part, not described
T2 sequence (looked up): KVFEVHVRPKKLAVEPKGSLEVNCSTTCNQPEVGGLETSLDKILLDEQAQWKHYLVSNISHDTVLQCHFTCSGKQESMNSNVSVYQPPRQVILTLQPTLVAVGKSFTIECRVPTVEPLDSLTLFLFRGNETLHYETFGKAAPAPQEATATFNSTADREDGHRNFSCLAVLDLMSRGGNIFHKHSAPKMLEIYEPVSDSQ
Briefly: BIAcore, 1 mM MgCl2. Here is the method: as §1

Experiment [3] concerns the target T3, recombinant ICAM-1 Fc chimera (UniProt P05362 28-480, limits assumed).
T3 construct: amine-coupled to the BIAcore chip; not shown: Fc part, not described
Briefly: BIAcore; Scatchard plots at steady state. Here is the method:
(§2) Recombinant soluble αL I-domains were expressed in E. coli, refolded and purified. Kinetics of binding of the I-domains to ICAM-1 was measured by BIAcore ™ instruments. Kinetics was analyzed BIAevaluation ™ software. KD was calculated by Scatchard plots using data at steady states. Koff was obtained by curve fining of the dissociation phase using 1:1 binding model. Kon was calculated by Koff/KD.

Experiment [4] deals with T3, recombinant ICAM-1 Fc chimera. Briefly: BIAcore; Kon calculated by Koff/KD. The method, then: as §2
The target is the same in experiment [5]. Briefly: BIAcore; dissociation phase, 1:1 model. The method, then:
as §2

Experiment [6] has as its target T1, recombinant ICAM-3 Fc chimera. As to the kind of experiment: BIAcore, ICAM Fc chimera immobilized, 1:1 model. Here is the method:
as §1

Experiment [7] has as its target T3, recombinant ICAM-1 Fc chimera. As to the kind of experiment: BIAcore, ICAM Fc chimera immobilized, 1:1 model. The method, then: as §1
The target of experiment [8] is T2, recombinant ICAM-2 Fc chimera. Briefly: BIAcore, ICAM Fc chimera immobilized, 1:1 model. The method, then:
as §1

Another experiment deals with T4, murine ICAM-1 (murine, UniProt P13597 28-485, limits assumed).
T4 construct: on EL-4 cells in the aggregation assay
T4 sequence (P13597 28-485 limits assumed): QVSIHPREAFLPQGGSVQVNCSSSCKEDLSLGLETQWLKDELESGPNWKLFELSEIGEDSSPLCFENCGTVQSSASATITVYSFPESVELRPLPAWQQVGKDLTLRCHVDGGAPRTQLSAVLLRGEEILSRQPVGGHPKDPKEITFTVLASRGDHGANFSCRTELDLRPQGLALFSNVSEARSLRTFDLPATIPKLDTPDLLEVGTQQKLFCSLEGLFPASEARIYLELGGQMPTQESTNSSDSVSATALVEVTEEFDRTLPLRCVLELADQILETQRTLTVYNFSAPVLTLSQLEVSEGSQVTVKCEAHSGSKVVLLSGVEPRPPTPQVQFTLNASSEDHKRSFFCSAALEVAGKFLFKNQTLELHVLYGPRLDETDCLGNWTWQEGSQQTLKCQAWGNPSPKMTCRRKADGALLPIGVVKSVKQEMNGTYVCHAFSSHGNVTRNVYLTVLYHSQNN
Briefly: BIAcore (not described further).

For experiment [9], the target named is ICAM-1 (BIAcore, another study; construct not stated) (UniProt P05362 28-480, limits assumed). Briefly: BIAcore, another study.
ICAM-1 (BIAcore, another study; construct not stated), sequence (P05362 28-480 limits assumed): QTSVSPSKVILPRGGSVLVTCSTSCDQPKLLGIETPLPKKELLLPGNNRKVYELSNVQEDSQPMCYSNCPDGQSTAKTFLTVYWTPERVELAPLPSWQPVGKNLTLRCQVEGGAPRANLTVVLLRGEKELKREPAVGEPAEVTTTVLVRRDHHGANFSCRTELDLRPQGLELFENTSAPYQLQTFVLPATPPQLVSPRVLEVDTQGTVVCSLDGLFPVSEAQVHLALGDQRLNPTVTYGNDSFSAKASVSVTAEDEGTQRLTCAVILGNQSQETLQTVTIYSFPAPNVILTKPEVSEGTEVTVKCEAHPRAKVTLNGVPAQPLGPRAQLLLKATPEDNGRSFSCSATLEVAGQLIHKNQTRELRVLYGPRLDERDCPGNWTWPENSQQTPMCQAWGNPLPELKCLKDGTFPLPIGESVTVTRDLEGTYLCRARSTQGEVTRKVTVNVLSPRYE

By Kd is commonly meant the constant that tells how readily two partners part at equilibrium. A word on the kon: it is the second-order rate constant of association. For orientation: koff means the first-order rate constant of dissociation.

T3 sequence (P05362 28-480 limits assumed, change not shown): as the sequence (P05362 28-480 limits assumed) above

B1: recombinant soluble wild-type αL I-domain (G128-Y307), E. coli (receptor)
chain: GNVDLVFLFDGSMSLQPDEFQKILDFMKDVMKKLSNTSYQFAAVQFSTSYKTEFDFSDYVKRKDPDALLKHVKHMLLLTNTFGAINYVATEVFREELGARPDATKVLIIITDGEATDSGNIDAAKDIIRYIIGIGKHFQTKESQETLHKFASKPASEFVKILDTFEKLKDLFTELQKKIY
notes: numbers as printed, probably mature αL numbering; also called soluble wild-type I domain; wild-type I-domain
As for B1, the binding result in [1] and in [2] was “no binding” each time.

B2: recombinant soluble αL I-domain L161C/F299C (locked open, intermediate affinity) (receptor)
chain: GNVDLVFLFDGSMSLQPDEFQKILDFMKDVMKKCSNTSYQFAAVQFSTSYKTEFDFSDYVKRKDPDALLKHVKHMLLLTNTFGAINYVATEVFREELGARPDATKVLIIITDGEATDSGNIDAAKDIIRYIIGIGKHFQTKESQETLHKFASKPASEFVKILDTFEKLKDLCTELQKKIY
In the case of B2, the Kd in experiment [3] came to 3.76 µM. The kon in [4] was 136000 M⁻¹ s⁻¹. Also, in experiment [5], the koff amounted to 0.513 s⁻¹.

B3: recombinant soluble αL I-domain K160C/F299C (locked open, intermediate affinity) (receptor)
chain: GNVDLVFLFDGSMSLQPDEFQKILDFMKDVMKCLSNTSYQFAAVQFSTSYKTEFDFSDYVKRKDPDALLKHVKHMLLLTNTFGAINYVATEVFREELGARPDATKVLIIITDGEATDSGNIDAAKDIIRYIIGIGKHFQTKESQETLHKFASKPASEFVKILDTFEKLKDLCTELQKKIY
For the molecule B3, in experiment [3], the Kd worked out at 4.39 µM. Also, the kon in experiment [4] is 153000 M⁻¹ s⁻¹. Besides, the koff in experiment [5] was found to be 0.67 s⁻¹.

B4: recombinant soluble αL I-domain L161C/T300C (locked open, intermediate affinity) (receptor)
chain: GNVDLVFLFDGSMSLQPDEFQKILDFMKDVMKKCSNTSYQFAAVQFSTSYKTEFDFSDYVKRKDPDALLKHVKHMLLLTNTFGAINYVATEVFREELGARPDATKVLIIITDGEATDSGNIDAAKDIIRYIIGIGKHFQTKESQETLHKFASKPASEFVKILDTFEKLKDLFCELQKKIY
Turning to B4, the Kd in [3] came out at 4.8 µM. The kon in [4] is 135000 M⁻¹ s⁻¹. The koff in [5] turned out to be 0.65 s⁻¹.

B5: recombinant soluble αL I-domain E284C/E301C (locked open) (receptor)
chain: GNVDLVFLFDGSMSLQPDEFQKILDFMKDVMKKLSNTSYQFAAVQFSTSYKTEFDFSDYVKRKDPDALLKHVKHMLLLTNTFGAINYVATEVFREELGARPDATKVLIIITDGEATDSGNIDAAKDIIRYIIGIGKHFQTKESQETLHKFASKPASCFVKILDTFEKLKDLFTCLQKKIY
With B5, the Kd in experiment [3] stood at 0.36 µM. The kon in [4] is 128000 M⁻¹ s⁻¹. Besides, the koff in experiment [5] is 0.0459 s⁻¹.

B6: recombinant soluble αL I-domain stabilized in the open conformation (K287C/K294C), G128-Y307, E. coli (receptor)
chain: GNVDLVFLFDGSMSLQPDEFQKILDFMKDVMKKLSNTSYQFAAVQFSTSYKTEFDFSDYVKRKDPDALLKHVKHMLLLTNTFGAINYVATEVFREELGARPDATKVLIIITDGEATDSGNIDAAKDIIRYIIGIGKHFQTKESQETLHKFASKPASEFVCILDTFECLKDLFTELQKKIY
modifications: introduced disulfide C287-C294
notes: numbers as printed, probably mature αL numbering; also called open I-domain; soluble open I-domain
Regarding B6, the Kd amounted to 3.94 µM in [6]; 0.18 µM in experiment [7]; 0.513 µM in experiment [8]; 0.18 µM in experiment [3]; 0.2 µM in experiment [9]. For the same molecule, the koff in experiment [6] came to 0.0749 s⁻¹; in [7], 0.023 s⁻¹; in [8] it was 0.0118 s⁻¹; in [5] it was 0.023 s⁻¹. Moreover, the kon in [6] is 19000 M⁻¹ s⁻¹; in [7], 128000 M⁻¹ s⁻¹; in experiment [8], 23000 M⁻¹ s⁻¹; in [4], 128000 M⁻¹ s⁻¹. In addition, in the experiment with murine ICAM-1, the binding result is given as “binds”.

B7: recombinant soluble αL I-domain L289C/K294C (locked closed) (receptor)
chain: GNVDLVFLFDGSMSLQPDEFQKILDFMKDVMKKLSNTSYQFAAVQFSTSYKTEFDFSDYVKRKDPDALLKHVKHMLLLTNTFGAINYVATEVFREELGARPDATKVLIIITDGEATDSGNIDAAKDIIRYIIGIGKHFQTKESQETLHKFASKPASEFVKICDTFECLKDLFTELQKKIY
For the molecule B7, in [3], the Kd came out at 1760 µM. Besides, the kon in [4] is 2110 M⁻¹ s⁻¹. Also, the koff in experiment [5] came to 2.84 s⁻¹.
